For data set [1], the system named is E. coli derivative strain which overexpressed an acyl-CoA synthetase (fadD) gene and expressed an olivetolic acid cyclase (OAC) from Cannabis sativa. The experiment in a line: OL, OLA and PDAL production in E. coli from genome-integrated Type-III PKS genes. The format is cell-based. The protocol:
To test olivetolic acid production in E. coli, strains comprising a putative OLS gene and an OAC gene from C. sativa were inoculated in multi-well plates containing LB supplemented with 1% glucose and appropriate concentrations of antibiotics. After 6 hours of cultivation at 32° C., the cells were transferred with a 10% inoculum to a P-limited seed medium (see Table 2) and cultivated for ˜18 hours at 32° ° C. to reach an OD of 2.0-4.0. The cultures were transferred with a 20% inoculum in a P-minimal medium (see Table 3) supplemented with 2% glucose and appropriate concentrations of antibiotics. After 3 hours of cultivation at 32° C., the culture was spiked with 4 mM hexanoic acid (˜OD 1.5-2.0). The resulting cultures were then harvested at either 3 hours or 21 hours post hexanoic acid spike; a final OD was taken. 300 μL of butyl acetate containing 500 mg/L undecanoic acid was added to each multi-well plate. The plates were then vortexed for 30 minutes at 1500 rpm and centrifuged for 10 minutes at 4500 rpm. 50 μL of organic layer was transferred to a 96-well plate and derivatized with 50 μL of N,O-Bis(trimethylsilyl)trifluoroacetamide (BSTFA). The plate was then incubated at room temperature for 2 hours to allow for complete derivatization. The samples were then run on GC-FID for analytical quantification of olivetolic acid (OLA), olivetol (OL), PDAL, and hexanoic acid.
Olivetol, PDAL, OLA, HTAL, CBGA and combinations thereof were analyzed by LCMS or LCMS/MS methods using C18 reversed phase chromatography coupled to either EXACTIVE™ (ThermoFisher) or QTRAP® 4500 (Sciex) mass spectrometers.
For reversed phase LCMS, compounds were identified by their LC retention times and MRM transitions specific to the compounds. LCMS/MS analysis was conducted on a Shimadzu UHPLC system coupled with AB Sciex QTRAP 4500 mass spectrometer. Agilent Eclipse XDB C18 column (4.6×3.0 mm, 1.8 μm) was used with a 1-min gradient elution at 1 mL/min using water containing 0.1% ammonia acetate as mobile phase A and 90% methanol containing 0.1% ammonia acetate as mobile phase B. The LC column temperature was maintained at 45° C. Negative ionization mode was used for all the analytes.
Three of the type-III PKS genes from Example 1 were integrated under control of a constitutive promoter into an E. coli derivative strain which overexpressed an acyl-CoA synthetase (fadD) gene and expressed an olivetolic acid cyclase (OAC) from Cannabis sativa.
The in vivo assay procedure and analytical methods were performed as described above.

The test system is the same in data set [2]. The experiment in a line: OL, OLA and PDAL production in E. coli from plasmid-expressed Type-III PKS genes. The format is cell-based. The conditions noted are these: gene on plasmid. The method in brief: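 E. coli strains expressing codon-optimized Type-III PKS genes (constitutive promoter) plus fadD overexpression and C. sativa OAC, grown at 32° C in P-minimal medium with 2% glucose, spiked with 4 mM hexanoic acid; harvested 3 h or 21 h post-spike. Butyl acetate extracts BSTFA-derivatized, OLA/OL/PDAL quantified by GC-FID.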

Data set [3] concerns hexanoyl-CoA or butyryl-CoA. The data set can be described thus: High-throughput activity assay of OLS_Aro and its variants in cell lysate. The format is biochemical. To be noted: in the absence of Olivetolic acid Cyclase (OAC). The text has this:
Single amino acid positions of interest of OLS_Aro were identified based on a 7 Å radial proximity around the active site predicted based on docking results with the tetraketide product into a structural homology model of OLS_Aro. Variants were constructed as a plasmid-based library using specific primers at the positions undergoing mutagenesis, amplifying fragments via Polymerase Chain Reaction (PCR), and circularizing plasmids via Gibson ligation. For site-saturation mutagenesis of selected amino acids sites, a compressed-codon approach was used to eliminate codon redundancy to lower library size. The plasmid-base used was the pZS*vector (Novagen) with expression of the OLS_Aro under control of a pAl promoter and lactose (lac) operator. […]
Single colonies were picked for growth in Luria Bertani (LB) medium in 384-well plates containing with carbenicillin (Carb). […] Cells pellets were stored at −20° C. until ready for assay. […]
Reactions were initiated by addition of cell lysate, then incubated for 20 mins or 1 hr for hexanoyl-CoA and butyryl-CoA, respectively. […] Filtrates analyzed by LC/MS for the quantification of olivetolic acid (OLA), olivetol (OL), and pentyl diacetic acid lactone (PDAL); or divarinic acid (DVA), divarinol (DVL), and propyl diacetic acid lactone (Propyl-DAL). […]
Under the screening conditions described above, products are detected in the low or sub μM range. […]

In data set [4] the test system is hexanoyl-CoA and malonyl-CoA. The data set can be described thus: Specific activity assay of purified type-III polyketide synthases (OLA formation in presence of OAC). It counts as biochemical. The conditions noted are these: hexanoyl-CoA and malonyl-CoA in the presence of OAC; FIG. 3. The protocol: In this Example, the specific activities of three previously uncharacterized type-III polyketide synthases (PKS) to form olivetolic acid from hexanoyl-CoA and malonyl-CoA in the presence of olivetolic acid cyclase (OAC) were determined and compared to the olivetol synthase (OLS) from C. sativa.
Assays were performed in a total volume of 50 μL in 100 mM Tris, pH 7.5 buffer containing 100 μM malonyl-CoA; 100 µM hexanoyl-CoA; a malonyl-CoA regenerating system comprising malonyl-CoA synthetase, excess malonate, and ATP; and excess purified olivetolic acid cyclase (OAC). The major product in this assay was olivetolic acid (OLA), and the triketide pentyl diacetic acid lactone (PDAL) was a side product. N-His-tagged purified enzymes were assayed under these assay conditions at enzyme concentrations and reaction times suitable for initial rate measurements of product formation. Reactions were initiated by addition of the PKS, then incubated for 30 min. Subsequently, 10 μL of reaction solution was removed and quenched into 15 volumes of 75% acetonitrile containing 0.1% formic acid and internal standards, then centrifuged to pellet denatured protein. Supernatants were transferred to fresh plates for LC-MS analysis of OLA, olivetol (OL), and PDAL as described in the Method section above.

Setting [5] is: constitutive promoter, 4 mM hexanoic acid.
[6] abbreviates: constitutive promoter, culture spiked with 4 mM hexanoic acid.

B1: QDX46968.1: Type-III PKS enzyme (OLS) from Anoectochilus roxburghii, designated OLS_Aro (protein, listed as Anoectochilus roxburghii)
chain: MPSLESIRKAPRADGLASILAIGRANPDNFMEQSSFPDFFFRITGSDHLVDLKKKFQRICDRTAIRKRHFVWNEEFIKANPCFSTFMDNSLNVRQEVAIREIPKLGAEAATKAIKEWGQPKSRITHLIFCTTSGMDLPGADYQLTRILGLNPNVERVMLYQQGCFAGGTTLRLAKCLAESRKGARVLVVCAETTTVLFRAPSEEHQEDLVTQALFADGASAVIVGADPDEEAHEKASFVIFSTSQVLLPDSEGAIGGHVSEGGLLATLHRDVPQLVSKNVGKCLEEAFTPLGISDWNSIFWVPHPGGRAILDQIEERVGLKPEKLTTSRHVLAEYGNMSSVCVHFVLDEMRKKSSKEGKATTGEGLEWGVLFGFGPGLTVETVVLRSVPL
modifications: (1)..(390) QDX46968.1
B1: the “products produced by strains with chromosomally expressed enzyme” value in data set [1] was “produced olivetol (OL), olivetolic acid (OLA) and pentyl diacetic acid lactone (PDAL)”. Besides, in data set [1] (OL + OLA + PDAL), the Total worked out at 276 µM. In data set [1] (setting [5]), the OL was 98 µM, the OLA worked out at 136 µM and the PDAL was determined as 42 µM. Moreover, the Total in data set [2] (OL + OLA + PDAL) amounted to 1956 µM. In addition, the “levels of OLA relative to the E. coli strain with OLS from C. sativa” value in data set [2] was “over two-fold”. Moreover, in data set [2] (setting [6]), the OL was 597 µM, the OLA was found to be 823 µM and the PDAL was 536 µM. In data set [3], the reaction products entry was “the major products are OL and PDAL or DVL and Propyl-DAL”. Further, in data set [4], the “specific activity to form olivetolic acid compared with OLS from C. sativa” value is “higher specific activities”.

Source of the values: patent US20240240160A1, “NOVEL OLIVETOL SYNTHASES FOR C[…]” (priority 2021, published 2024).
